In US20170137512A1:
Read-outs that look alike come from different tables or passages of the source.

How the values were obtained:
[1] = molecular target: T1, cyno Kv1.3 (Macaca fascicularis)
T1 chain: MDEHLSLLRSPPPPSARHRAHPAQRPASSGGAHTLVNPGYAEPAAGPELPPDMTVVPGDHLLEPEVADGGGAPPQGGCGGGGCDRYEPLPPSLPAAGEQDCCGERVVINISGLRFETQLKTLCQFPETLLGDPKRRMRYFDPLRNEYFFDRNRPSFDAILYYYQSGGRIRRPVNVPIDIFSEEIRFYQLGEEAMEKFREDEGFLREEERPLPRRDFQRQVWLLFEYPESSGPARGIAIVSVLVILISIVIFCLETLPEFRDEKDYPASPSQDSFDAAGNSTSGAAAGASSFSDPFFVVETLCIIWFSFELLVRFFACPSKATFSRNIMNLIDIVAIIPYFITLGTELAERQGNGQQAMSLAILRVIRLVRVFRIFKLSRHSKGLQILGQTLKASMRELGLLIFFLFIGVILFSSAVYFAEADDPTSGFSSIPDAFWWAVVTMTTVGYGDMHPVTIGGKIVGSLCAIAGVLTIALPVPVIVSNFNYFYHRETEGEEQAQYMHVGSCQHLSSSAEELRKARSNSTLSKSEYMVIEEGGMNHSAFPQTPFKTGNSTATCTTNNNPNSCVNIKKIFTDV

[2] = molecular target: human Kv1.3 (Homo sapiens), P22001
[3] = molecular target: human Kv1.3 (Homo sapiens), P22001; remark: listed apart in the source
[4] = molecular target: human Kv1.3 (Homo sapiens), P22001; experiment: cell-based or functional assay
[5] = molecular target: human Kv1.3 (Homo sapiens), P22001; experiment: cell-based or functional assay; remark: listed apart in the source
[6] = molecular target: human Kv1.3 (Homo sapiens) (UniProt P22001); experiment: cell-based or functional assay
[7] = molecular target: T1, cyno Kv1.3 (Macaca fascicularis); experiment: titration of radiolabeled margatoxin on CHO-cyKv1.3 cells

Work on RSCIDTIPKSRCTAFQCKHSMKYRLSFCRKTCGTC (modifications not checked) [ShK-1aJ (Smartox, #08SHK001), P29187 1-35] yielded an IC50 [1] of 0.24 nM, a % inhibition [2] of 102% and an IC50 (read off the curve) [3] of 10 nM. The IC50, CD25 read out, CCR7-CD45RA- T cells stimulated with anti-CD3 [4] was 0.22 nM, the IC50, IFNγ read out, CCR7-CD45RA- T cells stimulated with anti-CD3 [4] was 0.065 nM and the Average IC50, Kv1.3 current, IonFlux automated patch clamp, HEK293H cells [5] was 0.076 nM. The Average IC50, Kv1.3 current, IonWorks perforated patch clamp, CHL cells [5] was 0.4 nM, the IC50, CD25 read out, CCR7-CD45RA- T cells stimulated with anti-CD3 [5] was 0.27 nM and the IC50, CD25 read out, T cell activation assay [5] was 0.73 nM. The IC50, CD25 read out, T cell activation assay, with 10 µM HSA [5] was 0.038 nM, the IC50, IFNγ production, T-cell activation assay [5] was 0.041 nM and the IC50, IFNγ read out, CCR7-CD45RA- T cells stimulated with anti-CD3 [5] was 0.076 nM. The IC50, IFNγ read out, T cell activation assay [5] was 0.14 nM and the IC50, IFNγ read out, T cell activation assay, with 10 µM HSA [5] was 0.027 nM.

Work on TIINVKCTSPKQCLPPCKAQFGQSAGAKCMNGKCKCYPH (modifications not checked) [unlabeled margatoxin (Alamone labs, Cat RTM-325), P40755 1-39] yielded an IC50 [1] of 0.24 nM and an IC50, IFNγ read out, CCR7-CD45RA- T cells stimulated with anti-CD3 [5] of 0.094 nM.

B1: A0194016B04 (VHH, not shown: small tags and cut ends)
VHH: EVQLVESGGGLVQAGGSLRLSCSASGLLFSVNSAGWYRQAPGKQRDFVARIRSGGSTNYADSVKGRFTISRDKATNTLYLQMNNLKPEDTAVYYCSSWRTEAYEYWGRGTLVTVSS
With B1 the Average IC50, Kv1.3 current, IonFlux automated patch clamp, HEK293H cells [6] was 84 nM and the Average IC50, Kv1.3 current, IonWorks perforated patch clamp, CHL cells [6] was 34 nM.

B2: A0194020A06 (VHH, not shown: small tags and cut ends)
VHH: EVQLVESGGGLVQAGGSLGLSCSASGLLFSRNSAGWYRQAPGKRREFVARIRMGGSINYADSVKGRFTVSRDNAKNMMYLQMNDLKPEDTAVYFCSGWREGFYEYWGQGTLVTVSS
B2 showed an Average IC50, Kv1.3 current, IonFlux automated patch clamp, HEK293H cells [6] of 13.4 nM, an IC50, CD25 read out, CCR7-CD45RA- T cells stimulated with anti-CD3 [6] of 36 nM and an IC50, IFNγ read out, CCR7-CD45RA- T cells stimulated with anti-CD3 [6] of 30 nM.

TIINVKCTSPKQCLPPCKAQFGQSAGAKCMNGKCKCYPH (modifications not checked) [125I-margatoxin (Perkin Elmer, NEX083), P40755 1-39] was tested, and the EC30 [7] was 0.15 nM.
